Reference: the RNAGym collection of RNA variant scans (doi:10.1073/pnas.2313332121)

B1: TPR t1 (parent)
chain: GACCAAUCUGCCCUCAGAGCUCGAGAACAUCUUCGGAUGCAGAGGAGGCAGGCUUCGGUGGCGCGAUAGCGCCAACGUCCUCAACCUCCAAUGCAUCCCACCACAUGAUGAUGCCUGAAGAGCCUUGGUUUUUUG

Variants of: B1
Assay: polymerase ribozyme fitness, log enrichment relative to wild type (log ratio); higher = more active; in vitro selection for triplet polymerase activity
Procedure, shortened: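 Streptavidin-bead capture of gel-excised extended constructs, followed by RT-PCR, closed a single triplicate in vitro selection round. That round began by annealing PCR-built, transcribed mutant libraries of each subunit of a heterodimeric triplet polymerase ribozyme with a biotinylated primer, the partner subunit and triplets, then incubating them frozen at −7 °C. After Illumina sequencing of inputs and outputs, genotypes needed ≥10 input reads and ≥1 read per output. Fitness is the base-2 logarithm of genotype enrichment over wild-type enrichment, using inverse-variance-weighted replicate averages.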

Variant | polymerase ribozyme fitness (log ratio)
U59C G120A G135U | -0.46
G60A C79A A84U | -2.32
C62A C101G C104U | -2.15
G60U U78A C89G | -1.87
G61C U87A C102A | -5.28
G61U C97A A100C | -3.32
U59A C70U U125A U133A | -1.97
G61A A121G | 1.21
G60C A121U U125G U129G | -0.914
C62A C89A | -3.57
G60A U116C | -0.935
U59A A74C C82A G93C | -1.19
G60A A121C | 1.29
G60A C94U | -0.196
G61C A111C | -1.98
G61C A111G | -0.983
G61A C98U G120U | -0.011
G60A U130A | -0.439
G60A U130G | -0.663
G61A A111U G128C U133G | -4.57
C62A C82U A91G C101G C123U G128U | -3.86
G61U C123U | 1.8
U59C C124A | 2.03
G60C U109G G120A | -5.9

Variant | polymerase ribozyme fitness (log ratio)
G61C G120A | 0.0588
G60U U112A | 1.6
G61A G77A C89U U126A | -2.77
U59G C70U C101A | -2.5
G61C C86A | -2.15
G61C G128U | -3.46
G61C G128A | -3.41
C62A C102A | -3.33
G61A G77A A95U | -1.47
G60C U129C | -0.277
G60U C101A C123G | 0.75
C62A C82A A121G | 1.58
U59A G93U | -0.878
G60U G120A C124A | 1.48
G61U C124A | 1.54
G60A C104U | 0.164
G61U U129C | -0.253
G61U U129A | -1.21
G61A C73U A91C C101A | -2.91
G61U U87C | 0.519
G60A G69U C82U C85G U129A | -4.53
G60A U92G C115A G120C | -2.03
G61A A100C | -0.823
G61A C101A U116A G128C | -6.04

Variant | polymerase ribozyme fitness (log ratio)
G60A G110U | -1.74
G61U U130G | -0.614
U59A G128C | -2.5
G60A C115A | -0.714
G60A C115G | -1.65
U59G C99U U106A | -1.43
G61A U106G C114U | -3.24
U59G G127U | -0.904
G61C C79A A95G G127A | -3.63
G61C C114A | -2.18
G61C U129A | -3.33
G61A U112C U129A | 1.39
G61C C89A A121G | -2.4
G60C C102A | -3.75
G60C A103U | -5.01
U59G A90U | -0.957
G60C C94A C102U U106A | -6.72
G61A C64U U81G G120U | -7.13
G60C U106C | -0.702
G60C U106G | -3.41
G60C C115A G120U | -0.0517
G61U U106C | 0.11
G60C G77U | -0.19
G60U U112G U116C | -1.99

Variant | polymerase ribozyme fitness (log ratio)
G61A G113A | -0.325
G61A C98A | -4.75
G61A C98U | -0.37
U59G G63A U87C C114U | -4.39
U59C G128U | -2.04
G60C A66G | -1.22
G60C G93U C114A | -2.51
G60C G117C A121C | -4.85
U59C A108G | -2.19
G61U A66C C114A | -2.88
U59C U78G | -0.0388
U59C U96C | -0.447
G60U C94A | -0.596
C62A G117C U133A | -5.95
G60A C88G G113A | -2.28
G58C U129G | -0.485
G61C C89A | -3.5
G61A C73A G127A | -1.74
G61A U129G U130A | -2.53
G61U C80A | -2.59
G61A U87C | -0.201
G60U C85G C102A | -2.17
C62A A121U | 1.32
U59C U109C C114A | -6.67

Variant | polymerase ribozyme fitness (log ratio)
C62A A91G | -2.78
U59A A66C C124A | 0.00699
G60A G63A | -2.96
G61U C86G | -1.55
G60U A74U G110U G127A | -4.43
G60U G117A | -0.487
G60U G117C | -3.52
U59C G127U | -0.462
C62A C82G G117A | -3.75
G60A C94U C124U | 1.59
G60U G69A | -4.86
G61A A111C | -0.072
G60C A118U | -0.0622
G60A A66U | -1.29
G61C A84U | -1.95
G60A G77C A111C C123A | -3.68
U59C C82A C88G | -2.83
G60C C89U C123G | 1.06
G61U C114A | -1.12
G60A A100U | -0.621
G61A C88U A105G | -2.9
G60U C115A U125G | 0.39
U59C U78C A83U C115A | -1.1
G61A C88U A100U G120A | -0.447

Variant | polymerase ribozyme fitness (log ratio)
G60C G61C | -1.72
G60U C76U | -2.74
G61C G107A | -6.66
G60A U112C | 1.25
U59C C64U C82G C94U | -1.7
G61U U92C | -1.84
G61U U109A | -3.77
G58C U133A | 0.072
U59G C82U G93U U96C C123U | -0.453
G60A U131G | 0.0187
G61A C70G | -4.02
G60U C104A | -1.7
G60C U112G U116C | -2.47
G61A C102U | -1.04
G61A C88G G120A A121C G135U | -0.364
G61U G113C | -1.82
U59A C88U A118U | 0.167
G60A C80A C85G C98U | -5.64
C62A C101G | -2.98
U59C A119G | 0.816
G61A U78G C123A U133A | 0.482
G61U G107U | -4.51
G61C C85U | -1.81
G60A C80U | -1.64

Variant | polymerase ribozyme fitness (log ratio)
U59C A91C G120C U133C G135U | -0.803
G61C U78G | -4.7
C62A C79U | -0.345
C62A C79A | -3.89
G60A C99U G127A | -4.87
G60U G110U | -0.553
G60U G110A | -1
G60C C80A | -4.35
G61A G120A U133A | 0.274
G61A C97A | -3.78
G60U A118U | -0.552
G60U A118C | -2.43
G60A C80A C88A | -3.61
G58U G61A | -0.176
G60U C62G A83C | -0.657
U59C G93C G113U U133G | -3.53
G61U A75G C82G A100C G113U | -5.51
G61C A66C G135U | -4.47
G60C C104A | -2.18
U59A C114A U130A | -2.17
G61A C86U U116A G117A | -2.15
G61U A83C C89G | -1.83
U59G G61A | -2.76
